Results as given in patent US8287851B2, “Use of interleukin 17E for the treatment of cancer” (Lorus Therapeutics Inc., priority 2005, dated 2012).

Test system: human pancreatic cancer MiaPaCa-2 xenograft
Experiment: Antitumour efficacy in human pancreatic cancer MiaPaCa-2 xenograft model
Assay type: in vivo, CD-1 athymic nude mice
Conditions: 0.04 mg/kg murine IL-17E i.p. every third day
Protocol: The ability of murine interleukin 17E to inhibit human pancreatic cancer growth was examined as follows. Human pancreatic cancer MiaPaCa-2 cells (10^6 cells in 100 μl PBS) were subcutaneously implanted into the right flank of CD-1 athymic nude mice. Murine IL-17E was obtained from R&D Systems, Inc., and is present in the preparation as a disulphide linked homodimer. The predominant form of IL-17E in this preparation is the form starting at Val 17 of the murine sequence provided as GenBank Accession No. NP 542767. When tumours reached a volume of 50-100 mm^3, mice were randomly separated into two groups of 8 animals and treated as follows:
Group I: […] of PBS intraperitoneally (i.p.) per mouse every day until the endpoint of the experiment; and
Group II: 0.04 mg/kg of murine IL-17E intraperitoneally (i.p.) every third day until the endpoint of the experiment.
The size of the tumours was measured by caliper measurements throughout the experiment. Tumour weight was determined from tumour tissue surgically excised from the animal on the last day of the experiment. […]
25 μg of murine or human IL-17E were reconstituted with 200 μl PBS. […] Samples were separated by electrophoresis on SDS-PAGE gels and analyzed by either Western blotting or silver staining to show a reduction in IL-17E levels in immunodepleted samples. […]

B1: murine IL-17E: Murine IL-17E from R&D Systems; predominant form starting at Val 17 of GenBank NP 542767 (protein)
chain: VSLRIQEGCSHLPSCCPSKEQEPPEEWLKWSSASVSPPEPLSHTHHAESCRASKDGPLNSRAISPWSYELDRDLNRVPQDLYHARCLCPHCVSLQTGSHMDPLGNSVPLYHNQTVFYRRPCHGEEGTHRRYCLERRLYRVSLACVCVRPRVMA
- tumour growth (tumour volume and weight) as compared to PBS: significantly inhibit tumour growth
